Laboratory results published in patent US20140234872A1.

Biological target: GST-SHP-1 ΔN+CSH2 (amino acids 276-end) (human) (UniProt P29350)
Assay: GST pulldown (FIG. 20B)

Chain of GST-SHP-1 ΔN+CSH2 (amino acids 276-end) (human) (P29350 276-595, stated change not applied): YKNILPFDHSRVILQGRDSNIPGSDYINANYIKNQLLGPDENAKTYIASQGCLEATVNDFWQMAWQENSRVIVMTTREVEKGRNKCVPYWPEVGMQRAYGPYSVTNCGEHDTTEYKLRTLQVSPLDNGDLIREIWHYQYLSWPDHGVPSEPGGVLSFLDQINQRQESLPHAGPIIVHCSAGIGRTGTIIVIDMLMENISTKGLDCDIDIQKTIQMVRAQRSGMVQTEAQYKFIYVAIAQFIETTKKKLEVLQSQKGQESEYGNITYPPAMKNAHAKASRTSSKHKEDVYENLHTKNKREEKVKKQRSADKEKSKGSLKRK

B1: His-GIV-CT (aa 1660-1870), wild-type, not phosphorylated (mock- or sham-treated) (protein, not shown: small tags and cut ends)
chain: SETLESRHHKIKTGSPGSEVVTLQQFLEESNKLTSVQIKSSSQENLLDEVMKSLSVSSDFLGKDKPVSCGLARSVSGKTPGDFYDRRTTKPEFLRPGPRKTEDTYFISSAGKPTPGTQGKIKLVKESSLSRQSKDSNPYATLPRASSVISTAEGTTRRTSIHDFLTKDSRLPISVDSPPAAADSNTTAASNVDKVQESRNSKSRSREQQSS
B1 was tested, and the reduction of binding against full length SHP-1 was 80%.
